2 molecules from publication PMC4134263 can be followed below.

For data set [1], the target named is T1, PdhR (Escherichia coli, UniProt P0ACL9 1-254). As to the kind of experiment: EMSA. Background: In EMSA bound probe runs differently from free probe, usually more slowly.
Data set [2] addresses T1, PdhR. As to the kind of experiment: EMSA. The source holds these as a separate data set.

Like-named read-outs stand apart in the source and are kept apart here.

T1 sequence (P0ACL9 whole entry): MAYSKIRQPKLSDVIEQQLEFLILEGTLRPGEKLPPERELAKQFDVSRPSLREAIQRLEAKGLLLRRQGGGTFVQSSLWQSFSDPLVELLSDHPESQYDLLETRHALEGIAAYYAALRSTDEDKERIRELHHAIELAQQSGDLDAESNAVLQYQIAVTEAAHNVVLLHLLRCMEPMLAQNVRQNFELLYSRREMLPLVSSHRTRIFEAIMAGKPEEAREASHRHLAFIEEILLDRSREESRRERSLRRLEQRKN

B1: lipA site 1 probe (dsDNA)
DNA 1: GAAACGCTTTCCTTCGTAATTCGCAACTGGAACACGCACGCTATGAG
DNA 2: CTCATAGCGTGCGTGTTCCAGTTGCGAATTACGAAGGAAAGCGTTTC
For the molecule B1, the binding result in data set [1] is “no binding”.

B2: lipA site 2 probe (dsDNA)
DNA 1: CAAAAATAGTTGATAATTACAACAATCTATTGAATTGAAACGC
DNA 2: GCGTTTCAATTCAATAGATTGTTGTAATTATCAACTATTTTTG
In the case of B2, the binding result in data set [2] was “no binding”.
